According to patent publication US7427404:

Target: monoclonal anti-S1 antibody 1B7
Assay: competition RIA: 1B7 coated on plate, 125I-PT displaced by unlabelled toxin

Substance: PT-9K (from UniProt P04978 28-226; P04979 29-227; P0A3R5 43-152; P04981 35-133)
- Ka: 8.9e+08 M⁻¹
